These results are taken from article PMC8464079.

Experiment in all cases: fluorescence polarization
(Fluorescence polarisation rises when a labelled molecule tumbles more slowly, as on binding a larger partner.)

One series addresses T1, MUT-4G (Caenorhabditis elegans, UniProt Q09487 172-535, N318S;H319N;Q322E).
T1 sequence: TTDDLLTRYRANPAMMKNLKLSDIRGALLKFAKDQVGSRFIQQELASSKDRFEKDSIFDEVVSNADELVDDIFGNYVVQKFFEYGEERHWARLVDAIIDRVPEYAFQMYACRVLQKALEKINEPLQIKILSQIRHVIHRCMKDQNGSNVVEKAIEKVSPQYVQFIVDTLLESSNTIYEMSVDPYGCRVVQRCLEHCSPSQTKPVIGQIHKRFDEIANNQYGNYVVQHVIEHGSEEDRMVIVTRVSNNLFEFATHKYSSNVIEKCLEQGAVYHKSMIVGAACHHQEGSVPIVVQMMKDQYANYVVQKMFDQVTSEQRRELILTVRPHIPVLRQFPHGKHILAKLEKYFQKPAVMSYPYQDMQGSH

The next series concerns the target T2, MUT-#11 (K513A) (Caenorhabditis elegans, UniProt Q09487 172-535, K513A).
T2 sequence: T1 sequence with S147N, N148H, E151Q, K342A

In another series the target is T3, MUT-#14 (Q476A/K513A) (Caenorhabditis elegans, UniProt Q09487 172-535, Q476A;K513A).
T3 sequence: T1 sequence with S147N, N148H, E151Q, Q305A, K342A

Another series deals with T4, MUT-4A (Caenorhabditis elegans, UniProt Q09487 172-535, N318C;H319R).
T4 sequence: T1 sequence with S147C, N148R, E151Q

A further series has as its target T5, MUT-8G (Caenorhabditis elegans, UniProt Q09487 172-535, N472S;Y473N;Q476E).
T5 sequence: T1 sequence with S147N, N148H, E151Q, N301S, Y302N, Q305E

In a further series the target is T6, MUT-4N (Caenorhabditis elegans, UniProt Q09487 172-535, N318A;H319A;Q322A).
T6 sequence: T1 sequence with S147A, N148A, E151A

Changes are numbered by the printed parent chain.

A word on the Kd: it is a measure of binding affinity in units of concentration. Lower therefore signals a tighter complex. Take UGUAAAUA (ssRNA) [PBE-5A FAM]: the Kd in the series with MUT-4G stood at 239 ± 48 nM; with MUT-#11 (K513A), 133 ± 29.8 nM; in the series with MUT-#14 (Q476A/K513A), 210 ± 27.4 nM; in the series with MUT-4A, 0.44 ± 0.39 nM; in the series with MUT-4N it was 161 ± 22 nM. In the series with MUT-8G, the binding result is given as “no binding”.
